Laboratory results reported in the supplement of paper PMC9112550, “Optimization of the antimicrobial peptide Bac7 by deep mutational scanning” (BMC Biology, 2022).

tested on: Escherichia coli TOP10; test: shrunken log2 fold change of peptide-encoding DNA abundance (4.5 h post-induction vs induction); higher = less antimicrobial activity (less host growth inhibition); conditions: time post-induction: 4.5 h; library: site-saturation at positions 5, 18, 19, 20
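Further: peptides expressed intracellularly from a pBAD plasmid library in pooled LB shake-flask culture, induced with 0.3% L-arabinose, DNA abundance read by NGS, three biological replicates, DESeq2 with apeglm shrinkage.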

| Sequence | shrunken log2 fold change |
| --- | --- |
| RRIRGRPPRLPRPRPRPLDFPRP | 0.78 |
| RRIRGRPPRLPRPRPRPLEKPRP | 0.725 |
| RRIRGRPPRLPRPRPRPLGSPRP | 0.338 |
| RRIRGRPPRLPRPRPRPLHRPRP | 0.187 |
| RRIRGRPPRLPRPRPRPLIIPRP | -0.05 |
| RRIRGRPPRLPRPRPRPLKFPRP | 0.11 |
| RRIRGRPPRLPRPRPRPLKHPRP | 0.0581 |
| RRIRGRPPRLPRPRPRPLKPPRP | 0.609 |
| RRIRGRPPRLPRPRPRPLKYPRP | 0.145 |
| RRIRGRPPRLPRPRPRPLLTPRP | 2.34 |
| RRIRGRPPRLPRPRPRPLLYPRP | 0.473 |
| RRIRGRPPRLPRPRPRPLMEPRP | 0.6 |
| RRIRGRPPRLPRPRPRPLNFPRP | -0.0482 |
| RRIRGRPPRLPRPRPRPLNIPRP | -0.148 |
| RRIRGRPPRLPRPRPRPLNKPRP | 0.11 |
| RRIRGRPPRLPRPRPRPLNMPRP | -0.114 |
| RRIRGRPPRLPRPRPRPLNSPRP | 0.181 |
| RRIRGRPPRLPRPRPRPLSGPRP | 0.675 |
| RRIRGRPPRLPRPRPRPLTYPRP | 0.279 |
| RRIRGRPPRLPRPRPRPLYCPRP | -0.0212 |
| RRIRGRPPRLPRPRPRPLYNPRP | -0.247 |
| RRIRGRPPRLPRPRPRPLYTPRP | 0.145 |
| RRIRGRPPRLPRPRPRPMAVPRP | 0.773 |
| RRIRGRPPRLPRPRPRPMCCPRP | 0.164 |
| RRIRGRPPRLPRPRPRPMCKPRP | 0.886 |

| Sequence | shrunken log2 fold change |
| --- | --- |
| RRIRGRPPRLPRPRPRPMCMPRP | 0.509 |
| RRIRGRPPRLPRPRPRPMCNPRP | 0.31 |
| RRIRGRPPRLPRPRPRPMEHPRP | 0.171 |
| RRIRGRPPRLPRPRPRPMFQPRP | 0.357 |
| RRIRGRPPRLPRPRPRPMGPPRP | 0.846 |
| RRIRGRPPRLPRPRPRPMHNPRP | 0.383 |
| RRIRGRPPRLPRPRPRPMIGPRP | 0.263 |
| RRIRGRPPRLPRPRPRPMIIPRP | 0.0975 |
| RRIRGRPPRLPRPRPRPMKLPRP | 0.265 |
| RRIRGRPPRLPRPRPRPMKSPRP | 0.206 |
| RRIRGRPPRLPRPRPRPMMHPRP | 0.456 |
| RRIRGRPPRLPRPRPRPMNPPRP | 0.217 |
| RRIRGRPPRLPRPRPRPMPDPRP | 0.13 |
| RRIRGRPPRLPRPRPRPMPPPRP | 1.23 |
| RRIRGRPPRLPRPRPRPMPQPRP | 0.255 |
| RRIRGRPPRLPRPRPRPMSCPRP | 0.364 |
| RRIRGRPPRLPRPRPRPMSHPRP | 0.225 |
| RRIRGRPPRLPRPRPRPMTHPRP | 0.708 |
| RRIRGRPPRLPRPRPRPMTLPRP | 0.509 |
| RRIRGRPPRLPRPRPRPMTQPRP | 0.28 |
| RRIRGRPPRLPRPRPRPMVEPRP | 0.446 |
| RRIRGRPPRLPRPRPRPMVHPRP | -0.0529 |
| RRIRGRPPRLPRPRPRPMVLPRP | -0.0349 |
| RRIRGRPPRLPRPRPRPMVNPRP | 0.744 |
| RRIRGRPPRLPRPRPRPNAHPRP | 0.754 |

| Sequence | shrunken log2 fold change |
| --- | --- |
| RRIRGRPPRLPRPRPRPNCYPRP | 0.183 |
| RRIRGRPPRLPRPRPRPNDTPRP | 0.188 |
| RRIRGRPPRLPRPRPRPNDVPRP | -0.208 |
| RRIRGRPPRLPRPRPRPNEGPRP | 0.0414 |
| RRIRGRPPRLPRPRPRPNEKPRP | 0.0813 |
| RRIRGRPPRLPRPRPRPNFMPRP | 0.0686 |
| RRIRGRPPRLPRPRPRPNGMPRP | 0.106 |
| RRIRGRPPRLPRPRPRPNGRPRP | 0.419 |
| RRIRGRPPRLPRPRPRPNHGPRP | -0.178 |
| RRIRGRPPRLPRPRPRPNHLPRP | -0.226 |
| RRIRGRPPRLPRPRPRPNIIPRP | 0.0628 |
| RRIRGRPPRLPRPRPRPNLWPRP | 0.671 |
| RRIRGRPPRLPRPRPRPNLYPRP | 0.0462 |
| RRIRGRPPRLPRPRPRPNMAPRP | 0.875 |
| RRIRGRPPRLPRPRPRPNMLPRP | 0.374 |
| RRIRGRPPRLPRPRPRPNNNPRP | -0.0957 |
| RRIRGRPPRLPRPRPRPNPYPRP | -0.0945 |
| RRIRGRPPRLPRPRPRPNQDPRP | 0.0491 |
| RRIRGRPPRLPRPRPRPNQIPRP | 0.109 |
| RRIRGRPPRLPRPRPRPNQLPRP | 0.0782 |
| RRIRGRPPRLPRPRPRPNRHPRP | 0.231 |
| RRIRGRPPRLPRPRPRPNTTPRP | 0.325 |
| RRIRGRPPRLPRPRPRPNTYPRP | 0.106 |
| RRIRGRPPRLPRPRPRPNVFPRP | 0.27 |
| RRIRGRPPRLPRPRPRPNVTPRP | 0.35 |
